In patent publication US20100129369A1 (Eli Lilly, published 2010):

What was measured:
RON-ECD-Fc [1] = molecular target: T1, RON-ECD-Fc (human, UniProt Q04912 25-957); experiment: ELISA, coated ECD-Fc, antibody 16666.667 ng/mL
T1 construct: extracellular domain; Bought reagent; not shown: Fc part of the bought fusion
T1 sequence (looked up): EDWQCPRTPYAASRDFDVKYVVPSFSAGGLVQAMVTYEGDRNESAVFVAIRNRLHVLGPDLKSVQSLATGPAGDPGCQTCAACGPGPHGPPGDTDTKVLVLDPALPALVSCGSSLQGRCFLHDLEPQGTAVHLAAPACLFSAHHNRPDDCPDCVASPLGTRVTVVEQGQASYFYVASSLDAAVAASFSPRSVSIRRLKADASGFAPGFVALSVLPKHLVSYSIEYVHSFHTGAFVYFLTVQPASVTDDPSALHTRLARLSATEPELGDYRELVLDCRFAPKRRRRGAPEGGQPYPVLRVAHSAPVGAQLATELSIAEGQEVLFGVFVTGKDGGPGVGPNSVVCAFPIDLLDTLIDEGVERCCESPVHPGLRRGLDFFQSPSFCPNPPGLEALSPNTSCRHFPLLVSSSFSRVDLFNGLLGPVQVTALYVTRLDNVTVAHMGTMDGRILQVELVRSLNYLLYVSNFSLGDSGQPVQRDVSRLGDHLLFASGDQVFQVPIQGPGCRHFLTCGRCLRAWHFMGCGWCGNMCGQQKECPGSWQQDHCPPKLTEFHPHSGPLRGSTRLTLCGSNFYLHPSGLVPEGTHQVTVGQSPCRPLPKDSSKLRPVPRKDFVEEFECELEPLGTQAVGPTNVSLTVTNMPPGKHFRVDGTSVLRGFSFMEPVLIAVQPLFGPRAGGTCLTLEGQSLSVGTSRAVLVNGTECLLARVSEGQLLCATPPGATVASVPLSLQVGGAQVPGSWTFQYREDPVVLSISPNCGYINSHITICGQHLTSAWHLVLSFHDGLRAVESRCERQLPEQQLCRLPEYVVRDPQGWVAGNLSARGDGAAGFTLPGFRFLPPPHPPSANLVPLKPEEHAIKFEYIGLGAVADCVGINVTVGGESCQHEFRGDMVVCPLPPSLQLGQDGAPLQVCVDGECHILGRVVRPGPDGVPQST
Description: (§1) Wells of 96-well EIA/RIA high binding plates (Costar, #2592) are coated with 100 μL of 1 μg/mL human c-Met extracellular domain (ECD)-Fc-Flis fusion (SEQ ID NO:72), RON-ECD-Fc (R&D Systems, #1947-MS), or PlexinA2-ECD-Fc (Abnova, Taipei, Taiwan #H00005362-P01) in coating buffer (BioFX Labs, # COAT-1000-01) overnight at 4° C. […] After the plates are washed, 100 μL/well of substrate solution (BioFx, #TMBW-1000-01) are added and the plates are incubated for 10 min. at room temperature. 100 μL/well of stop solution (BioFx, # LSTP-1000-01) are added to stop the reaction. The colorimetric signals are developed and read at 450 nm using a SpectraMax 190 plate reader (Molecular Devices, Sunnyvale, Calif.). c-Met antibody binding to c-Met, RON and PlexinA2 ECDs is proportional to color signal production.

PlexinA2-ECD-Fc [2] = molecular target: T2, PlexinA2-ECD-Fc (human, UniProt O75051 35-1237); experiment: ELISA, coated ECD-Fc, antibody 16666.667 ng/mL
T2 construct: extracellular domain; Bought reagent
T2 sequence (looked up): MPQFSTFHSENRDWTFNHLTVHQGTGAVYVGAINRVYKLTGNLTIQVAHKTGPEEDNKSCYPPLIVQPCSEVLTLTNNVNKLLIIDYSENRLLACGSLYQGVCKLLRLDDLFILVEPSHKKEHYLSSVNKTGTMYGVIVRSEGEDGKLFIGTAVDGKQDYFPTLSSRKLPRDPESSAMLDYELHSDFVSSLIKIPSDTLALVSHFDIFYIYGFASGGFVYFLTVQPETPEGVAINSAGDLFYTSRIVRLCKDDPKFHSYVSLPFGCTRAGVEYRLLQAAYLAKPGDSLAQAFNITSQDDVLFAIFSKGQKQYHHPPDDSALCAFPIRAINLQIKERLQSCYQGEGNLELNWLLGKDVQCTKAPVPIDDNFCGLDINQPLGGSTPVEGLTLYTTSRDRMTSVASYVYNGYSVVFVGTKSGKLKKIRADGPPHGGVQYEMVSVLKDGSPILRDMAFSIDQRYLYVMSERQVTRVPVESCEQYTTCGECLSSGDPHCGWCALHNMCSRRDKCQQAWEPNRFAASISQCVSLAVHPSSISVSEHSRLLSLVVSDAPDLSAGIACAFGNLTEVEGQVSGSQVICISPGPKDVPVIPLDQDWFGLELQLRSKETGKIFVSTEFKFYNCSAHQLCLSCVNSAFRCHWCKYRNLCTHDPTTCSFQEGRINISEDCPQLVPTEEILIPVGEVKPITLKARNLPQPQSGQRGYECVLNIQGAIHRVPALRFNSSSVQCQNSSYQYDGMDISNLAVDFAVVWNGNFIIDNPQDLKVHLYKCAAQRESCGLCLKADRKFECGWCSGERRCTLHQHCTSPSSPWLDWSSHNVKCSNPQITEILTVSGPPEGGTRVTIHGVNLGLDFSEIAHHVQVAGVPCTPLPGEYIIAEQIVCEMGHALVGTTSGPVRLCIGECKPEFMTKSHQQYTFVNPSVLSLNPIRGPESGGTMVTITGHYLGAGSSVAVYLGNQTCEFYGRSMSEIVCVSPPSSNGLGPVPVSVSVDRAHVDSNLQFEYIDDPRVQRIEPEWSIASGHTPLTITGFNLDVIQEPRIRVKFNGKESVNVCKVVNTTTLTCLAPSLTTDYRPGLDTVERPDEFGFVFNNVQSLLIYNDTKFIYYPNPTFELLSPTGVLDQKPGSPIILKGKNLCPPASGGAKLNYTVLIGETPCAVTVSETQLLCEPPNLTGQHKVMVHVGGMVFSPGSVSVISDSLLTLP
Description: as §1

Human c-Met-Flis-Fc ECD [3] = molecular target: T3, Human c-Met-Flis-Fc ECD (human); experiment: ELISA, coated ECD-Fc, antibody 16666.667 ng/mL
T3 construct: also called human c-Met extracellular domain (ECD)-Fc-Flis fusion; Human cMet-ECD-Fc-Flis
Description: as §1

RON-ECD-Fc [4] = molecular target: T1, RON-ECD-Fc; experiment: ELISA, coated ECD-Fc, antibody 0.357 ng/mL
Description: as §1

PlexinA2-ECD-Fc [5] = molecular target: T2, PlexinA2-ECD-Fc; experiment: ELISA, coated ECD-Fc, antibody 0.357 ng/mL
Description: as §1

Human c-Met-Flis-Fc ECD [6] = molecular target: T3, Human c-Met-Flis-Fc ECD; experiment: ELISA, coated ECD-Fc, antibody 0.357 ng/mL
Description: as §1

RON-ECD-Fc [7] = molecular target: T1, RON-ECD-Fc; experiment: ELISA, coated ECD-Fc, antibody 0.060 ng/mL
Description: as §1

T3 sequence (chain, as listed by the source limits assumed): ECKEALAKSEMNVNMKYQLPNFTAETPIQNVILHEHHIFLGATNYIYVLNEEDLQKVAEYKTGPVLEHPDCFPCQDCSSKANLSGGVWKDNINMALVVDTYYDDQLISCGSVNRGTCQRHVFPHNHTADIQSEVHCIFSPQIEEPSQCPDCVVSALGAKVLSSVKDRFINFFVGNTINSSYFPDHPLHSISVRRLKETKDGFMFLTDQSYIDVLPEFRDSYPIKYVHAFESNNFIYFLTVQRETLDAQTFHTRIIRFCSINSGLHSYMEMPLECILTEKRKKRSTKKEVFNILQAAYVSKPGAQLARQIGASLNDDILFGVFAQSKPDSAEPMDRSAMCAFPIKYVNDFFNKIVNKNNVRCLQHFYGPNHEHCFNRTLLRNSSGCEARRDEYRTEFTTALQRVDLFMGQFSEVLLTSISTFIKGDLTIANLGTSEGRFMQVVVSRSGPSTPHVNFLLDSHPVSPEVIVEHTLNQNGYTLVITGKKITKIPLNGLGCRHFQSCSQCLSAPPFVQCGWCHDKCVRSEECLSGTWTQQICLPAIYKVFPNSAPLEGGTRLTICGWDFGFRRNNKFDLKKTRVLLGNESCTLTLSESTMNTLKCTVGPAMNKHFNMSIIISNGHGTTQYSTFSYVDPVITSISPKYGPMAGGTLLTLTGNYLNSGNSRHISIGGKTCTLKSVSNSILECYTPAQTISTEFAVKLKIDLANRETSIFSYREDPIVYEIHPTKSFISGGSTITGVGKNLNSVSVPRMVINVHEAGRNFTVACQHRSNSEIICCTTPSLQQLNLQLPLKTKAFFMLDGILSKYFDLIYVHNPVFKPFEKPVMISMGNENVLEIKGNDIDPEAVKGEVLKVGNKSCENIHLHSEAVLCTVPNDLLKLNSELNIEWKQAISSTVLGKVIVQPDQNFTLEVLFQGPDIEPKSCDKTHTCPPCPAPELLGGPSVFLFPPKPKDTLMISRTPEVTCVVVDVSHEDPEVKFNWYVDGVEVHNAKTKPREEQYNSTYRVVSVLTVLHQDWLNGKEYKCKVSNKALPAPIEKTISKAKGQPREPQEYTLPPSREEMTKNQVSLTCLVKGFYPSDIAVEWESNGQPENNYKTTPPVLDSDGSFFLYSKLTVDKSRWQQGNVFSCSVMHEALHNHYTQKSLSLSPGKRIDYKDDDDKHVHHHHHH

Average A450 nm (RON-ECD-Fc [1]): 0.124 A450 nm | Average A450 nm (PlexinA2-ECD-Fc [2]): 0.118 A450 nm | Average A450 nm (Human c-Met-Flis-Fc ECD [3]): 4 A450 nm | Average A450 nm (RON-ECD-Fc [4]): 0.08 A450 nm | Average A450 nm (PlexinA2-ECD-Fc [5]): 0.107 A450 nm | Average A450 nm (Human c-Met-Flis-Fc ECD [6]): 0.813 A450 nm | Average A450 nm (RON-ECD-Fc [7]): 0.087 A450 nm
B1: C8-6 (antibody, human IgG2, kappa, V domains shown)
VH: QVQLVQSGAEVKKPGASVKVSCKASGYTFTDYYMHWVRQAPGQGLEWMGRVNPNRGGTTYNQKFEGRVTMTTDTSTSTAYMELRSLRSDDTAVYYCARTNWLDYWGQGTTVTVSS
VL: DIQMTQSPSSLSASVGDRVTITCSVSSSVSSIYLHWYQQKPGKAPKLLIYSTSNLASGVPSRFSGSGSGTDFTLTISSLQPEDFATYYCIQYSGYPLTFGGGTKVEIKR
notes: Called IgG4, kappa; also called Mab C8-6
